Measurements reported in publication PMC10876603.

Biological target: microtubules (polymerised α/β-tubulin) (UniProt Q6B856)
Sequence of UniProt Q6B856 (Q6B856 whole entry, looked up): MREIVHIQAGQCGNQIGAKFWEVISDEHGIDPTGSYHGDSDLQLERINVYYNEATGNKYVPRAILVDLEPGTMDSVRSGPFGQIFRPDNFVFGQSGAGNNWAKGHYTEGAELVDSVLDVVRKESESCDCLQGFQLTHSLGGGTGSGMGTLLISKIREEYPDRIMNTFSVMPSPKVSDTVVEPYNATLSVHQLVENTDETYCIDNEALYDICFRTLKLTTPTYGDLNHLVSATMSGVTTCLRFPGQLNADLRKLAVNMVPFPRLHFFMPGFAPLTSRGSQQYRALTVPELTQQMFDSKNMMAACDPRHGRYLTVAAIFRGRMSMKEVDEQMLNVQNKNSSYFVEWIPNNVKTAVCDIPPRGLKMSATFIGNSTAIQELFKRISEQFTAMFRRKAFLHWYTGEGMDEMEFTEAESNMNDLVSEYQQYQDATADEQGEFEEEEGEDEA

Substance “human CEN subcomplex with wild-type Borealin (CEN-Borealin^wt) (from UniProt Q9NQS7 1-58; O15392 1-142; Q53HL2 1-280)” has a width of bundles of GMpCpp-stabilized rhodamine-labeled MTs (100 nM) after 2 min with 4 μM CEN, TIRF microscopy (single GMpCpp MTs measure 0.34 μm) of 0.46 μm.
